The values that follow come from patent US20150218239A1 (ARGENX, published 2015).

Where a chain is given by its changes, count along the chain named. Names may count otherwise.

Assay [1] deals with T1, murine CD16-2 (Sino Biological Inc., 50036-M27H-B) (murine, UniProt A0A0B4J1G0 21-203, Probably biotinylated on a vendor tag (suffix -B); not given).
T1 construct: Bought reagent, used in 'a similar experimental procedure' to the hCD16a ELISA; also called mCD16-2
T1 sequence: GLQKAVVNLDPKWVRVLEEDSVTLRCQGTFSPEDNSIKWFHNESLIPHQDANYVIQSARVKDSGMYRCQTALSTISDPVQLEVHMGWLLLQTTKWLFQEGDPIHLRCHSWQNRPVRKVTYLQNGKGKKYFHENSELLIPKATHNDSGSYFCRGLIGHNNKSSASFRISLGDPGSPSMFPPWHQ
Put plainly: ELISA on murine CD16-2, similar procedure to the hCD16a ELISA. As for the experimental part:
(§1) Specifically, a Maxisorp plate was coated with 100 ng/well of Neutravidin Biotin-binding Protein (ThermoScientific, 31000) and incubated overnight at 4° C. The following day, the plate was blocked with PBS+1% casein for 2 hours at room temperature. […] Binding to hCD16a was detected using an HRP-conjugated polyclonal goat anti-human Fc antibody (Jackson ImmunoResearch, 109-035-008) (incubation 1 hour at RT, dilution 1/50,000 in PBS+0.1% casein), followed by addition of […] room temperature-equilibrated TMB (SDT-reagents #s TMB). Plates were incubated for 10 minutes prior to addition of 100 μl 0.5N H₂SO₄ and OD450 nm measurement. EC50 values were determined using GraphPad Prism software.
Using a similar experimental procedure as described above, the binding affinity for murine CD16-2 (Sino Biological Inc., 50036-M27H-B) was determined.
(In general: An ELISA detects its analyte on a solid surface through an enzyme-linked reagent.)

The target of assay [2] is T2, biotinylated hCD16a (Sino Biological Inc., 10389-H27H1-B) (human, UniProt P08637 17-208, biotinylated).
T2 construct: Bought reagent, captured on a neutravidin-coated plate; also called human CD16a
The assay is described as follows: ELISA on biotinylated hCD16a captured on neutravidin; anti-human Fc-HRP detection. The method, then:
as §1

T2 sequence (P08637 17-208 limits assumed): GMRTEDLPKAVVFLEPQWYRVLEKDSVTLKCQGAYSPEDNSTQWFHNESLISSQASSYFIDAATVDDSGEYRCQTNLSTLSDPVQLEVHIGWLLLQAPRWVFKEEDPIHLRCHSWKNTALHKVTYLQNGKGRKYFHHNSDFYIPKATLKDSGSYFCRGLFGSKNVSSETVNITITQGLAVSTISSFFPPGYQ

B1: Fc-Abdeg-POT (other)
chain: DKTHTCPPCPAPELLGGPSVFLFPPKPKDTLYITREPEVTCVVVDVSHEDPEVKFNWYVDGVEVHNAKTKPREEQYNSTYRVVSVLTVLHQDWLNGKEYKCKVSNKALPAPIEKTISKAKGQPREPQVYTLPPSRDELTKNQVSLTCLVKGFYPSDIAVEWESNGQPENNYKTTPPVLDSDGSFFLYSKLTVDKSRWQQGNVFSCSVMHEALKFHYTQKSLSLSPGK
modifications: afucosylated N-linked glycan (afucosylated form of Fc-Abdeg)
notes: also called afucosylated form of Fc-Abdeg; afucosylated variant
One may read the EC50 as the concentration that produces a half-maximal response. Lower therefore signals greater potency. For the molecule B1, the EC50 in assay [1] is 0.011 µM; in assay [2], 0.013 µM. The “fold increase in affinity over fucosylated Fc-Abdeg” value in assay [2] was over 30 fold.

B2: Fc-Abdeg-S239D/I332E (other)
chain: B1 chain with S19D, I112E
notes: Fc-Abdeg variant
B2: in assay [2], the EC50 came to 0.006 µM.
